Publication PMC9588798

Target: Human IgM heavy (μ) chain of the full-length IgM pentamer from myeloma (human) (UniProt P01871)
Assay: cryo-EM structure; full-length human IgM pentamer without secretory component, 0.25 mg/ml, in PBS; single-particle cryo-EM, 3D variability analysis and focused refinement on subunit 1; models PDB 6KXS, 4JVU and 2AGJ rigidly docked

stoichiometry N: 10
Substance: Human IgM heavy (μ) chain of the full-length IgM pentamer from myeloma (from UniProt P01871 106-433) (natural protein)
